Earlier results on one substance are cited in patent publication US6632836B1, “Carbocyclic potassium channel inhibitors” (Merck & Co., Inc., priority 1998, dated 2003).

What is called IC50 is the concentration at which inhibition is half-maximal.

The target in this series is T1, Kv1.3 channels (Homo sapiens, UniProt P22001).
T1 construct: expressed in transfected cells; host or cells: CHO cells
Particulars: reference blocker used at saturating concentration to establish the efflux window; read-out: IC50 as blocker of Kv1.3 channels.

T1 sequence (P22001 whole entry): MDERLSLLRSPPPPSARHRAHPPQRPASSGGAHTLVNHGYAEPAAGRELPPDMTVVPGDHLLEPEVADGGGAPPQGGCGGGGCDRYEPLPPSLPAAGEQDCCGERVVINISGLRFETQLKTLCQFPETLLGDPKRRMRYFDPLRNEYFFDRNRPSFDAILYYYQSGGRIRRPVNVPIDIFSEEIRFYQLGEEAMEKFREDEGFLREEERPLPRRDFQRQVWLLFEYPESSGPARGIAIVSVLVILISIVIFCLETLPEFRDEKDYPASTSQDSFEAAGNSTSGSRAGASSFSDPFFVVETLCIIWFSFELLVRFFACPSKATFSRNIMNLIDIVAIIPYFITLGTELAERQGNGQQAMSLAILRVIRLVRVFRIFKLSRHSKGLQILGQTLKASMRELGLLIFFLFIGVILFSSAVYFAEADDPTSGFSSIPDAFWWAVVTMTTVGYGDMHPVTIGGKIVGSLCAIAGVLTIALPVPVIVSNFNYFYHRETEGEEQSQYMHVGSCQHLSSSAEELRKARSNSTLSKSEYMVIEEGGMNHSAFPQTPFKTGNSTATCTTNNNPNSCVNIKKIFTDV

As for “margatoxin (TIINVKCTSPKQCLPPCKAQFGQSAGAKCMNGKCKCYPH; UniProt P40755 1-39, looked up)”, the concentration for half-maximal inhibition (IC50) is 0.1 nM.
